Laboratory results: PMC11318927

How the values were obtained:
[1] = molecular target: YY1 cellular transcription factor, endogenous in LCLs (UniProt P25490); assay: co-immunoprecipitation (YY1 IP, EBNA-LP blot, band signal quantified); conditions: 50% IP lanes; trans-complemented LPKO LCLs; parent: 1
[2] = molecular target: YY1 cellular transcription factor, endogenous in LCLs (UniProt P25490); assay: co-immunoprecipitation (FLAG-EBNA-LP IP, YY1 blot, band signal quantified); conditions: 50% IP lanes; LPKO LCLs (Donor 4) trans-complemented; parent: 1.0

Chain of UniProt P25490 (P25490 whole entry): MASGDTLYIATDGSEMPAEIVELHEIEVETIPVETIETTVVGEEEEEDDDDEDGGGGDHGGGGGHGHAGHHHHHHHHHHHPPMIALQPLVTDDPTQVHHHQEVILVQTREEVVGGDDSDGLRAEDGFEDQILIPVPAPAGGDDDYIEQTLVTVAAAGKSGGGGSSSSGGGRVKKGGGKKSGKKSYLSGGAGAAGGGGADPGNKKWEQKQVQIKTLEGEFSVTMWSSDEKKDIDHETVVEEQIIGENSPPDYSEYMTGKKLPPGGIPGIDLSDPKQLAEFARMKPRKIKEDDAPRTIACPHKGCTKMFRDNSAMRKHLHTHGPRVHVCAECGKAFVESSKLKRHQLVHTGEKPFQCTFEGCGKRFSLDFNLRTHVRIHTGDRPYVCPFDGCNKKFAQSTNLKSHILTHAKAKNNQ

“FLAG-EBNA-LP wild type (B95-8) with four W domains, from the trans-complementation vector W:L25A; W:L28A; W:L29A (in each of the four W domains); Y:L13A; Y:L17A; Y:L18A” was tested, and the response [1] was 0 and the response [2] was 0.01.
